Drawing on PMC10958106, this text covers percent reduction of the binding of CD109 to the AP2 core in the presence of E7, percent reduction of the binding of EGFR to the AP2 core in the presence of E7 and percent reduction of the binding of MET to the AP2 core in the presence of E7 for one substance.

In this experiment the target is AP2 core GST (α2 trunk, β2 trunk and μ2 subunit) (UniProt O94973). Briefly: pull-down; AP2 core GST (or empty GST) bound to glutathione resin, incubated 3 h at 4 °C with extracts of HEK293 cells transfected with the receptor with or without HPV-16 E7; lysis buffer 50 mM HEPES pH 7.4, 150 mM NaCl, 1 mM MgCl2, 1% Triton X-100; Western blot. On the technique in general: Immunoblotting shows a protein as a band on a membrane.

Some results are limits rather than exact numbers.

Sequence of UniProt O94973 (O94973 whole entry, chain 1 of 3): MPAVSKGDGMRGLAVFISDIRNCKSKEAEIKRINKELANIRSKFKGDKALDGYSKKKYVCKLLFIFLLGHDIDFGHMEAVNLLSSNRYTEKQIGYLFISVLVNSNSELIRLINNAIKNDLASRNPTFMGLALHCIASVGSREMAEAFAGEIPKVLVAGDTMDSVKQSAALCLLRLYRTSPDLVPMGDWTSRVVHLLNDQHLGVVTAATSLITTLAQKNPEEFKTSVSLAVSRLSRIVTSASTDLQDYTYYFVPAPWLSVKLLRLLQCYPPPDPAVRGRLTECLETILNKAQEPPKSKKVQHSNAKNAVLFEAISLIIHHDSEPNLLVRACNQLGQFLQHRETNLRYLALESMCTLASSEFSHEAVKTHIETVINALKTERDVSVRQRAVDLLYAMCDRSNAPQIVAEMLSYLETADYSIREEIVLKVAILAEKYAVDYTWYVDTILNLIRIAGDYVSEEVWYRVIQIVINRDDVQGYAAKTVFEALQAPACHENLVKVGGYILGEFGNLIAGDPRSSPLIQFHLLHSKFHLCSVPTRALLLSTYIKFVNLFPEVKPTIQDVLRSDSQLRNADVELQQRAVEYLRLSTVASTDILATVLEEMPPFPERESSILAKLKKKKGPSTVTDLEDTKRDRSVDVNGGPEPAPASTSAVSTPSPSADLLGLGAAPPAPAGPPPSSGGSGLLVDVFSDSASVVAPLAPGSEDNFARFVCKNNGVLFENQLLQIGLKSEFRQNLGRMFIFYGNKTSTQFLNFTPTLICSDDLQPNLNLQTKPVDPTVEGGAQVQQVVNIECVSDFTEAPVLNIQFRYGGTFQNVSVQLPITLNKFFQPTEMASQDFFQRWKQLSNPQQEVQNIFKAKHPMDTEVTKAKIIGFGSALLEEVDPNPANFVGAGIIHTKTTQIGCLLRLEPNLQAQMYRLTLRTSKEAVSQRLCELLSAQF
Sequence of UniProt O94973 (P63010 whole entry, chain 2 of 3, further chain): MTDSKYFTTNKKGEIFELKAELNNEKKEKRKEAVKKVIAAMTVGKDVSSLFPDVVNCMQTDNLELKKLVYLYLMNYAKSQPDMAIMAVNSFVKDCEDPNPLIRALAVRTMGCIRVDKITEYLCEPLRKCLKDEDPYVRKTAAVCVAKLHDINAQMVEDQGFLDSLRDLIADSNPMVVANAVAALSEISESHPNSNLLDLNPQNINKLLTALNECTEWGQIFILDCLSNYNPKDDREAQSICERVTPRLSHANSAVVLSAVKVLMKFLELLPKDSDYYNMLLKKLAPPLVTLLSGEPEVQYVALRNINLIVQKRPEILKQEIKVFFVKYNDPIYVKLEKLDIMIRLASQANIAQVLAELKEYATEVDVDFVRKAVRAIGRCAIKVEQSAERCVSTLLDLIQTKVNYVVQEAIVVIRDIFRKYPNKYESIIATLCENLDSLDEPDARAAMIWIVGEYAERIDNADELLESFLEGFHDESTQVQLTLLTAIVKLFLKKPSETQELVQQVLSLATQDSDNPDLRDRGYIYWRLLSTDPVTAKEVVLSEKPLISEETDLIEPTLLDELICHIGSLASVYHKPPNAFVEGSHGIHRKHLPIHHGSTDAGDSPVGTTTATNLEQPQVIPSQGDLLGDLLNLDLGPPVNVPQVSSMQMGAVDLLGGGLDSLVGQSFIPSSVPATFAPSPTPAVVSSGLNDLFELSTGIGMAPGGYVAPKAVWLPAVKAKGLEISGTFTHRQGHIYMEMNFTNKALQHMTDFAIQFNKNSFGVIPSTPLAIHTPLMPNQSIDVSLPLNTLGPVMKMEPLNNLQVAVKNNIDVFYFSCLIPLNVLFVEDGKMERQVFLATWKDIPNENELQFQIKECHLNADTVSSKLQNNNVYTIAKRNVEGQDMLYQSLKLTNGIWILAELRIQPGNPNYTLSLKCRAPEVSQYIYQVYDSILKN
Sequence of UniProt O94973 (Q96CW1 whole entry, chain 3 of 3, further chain): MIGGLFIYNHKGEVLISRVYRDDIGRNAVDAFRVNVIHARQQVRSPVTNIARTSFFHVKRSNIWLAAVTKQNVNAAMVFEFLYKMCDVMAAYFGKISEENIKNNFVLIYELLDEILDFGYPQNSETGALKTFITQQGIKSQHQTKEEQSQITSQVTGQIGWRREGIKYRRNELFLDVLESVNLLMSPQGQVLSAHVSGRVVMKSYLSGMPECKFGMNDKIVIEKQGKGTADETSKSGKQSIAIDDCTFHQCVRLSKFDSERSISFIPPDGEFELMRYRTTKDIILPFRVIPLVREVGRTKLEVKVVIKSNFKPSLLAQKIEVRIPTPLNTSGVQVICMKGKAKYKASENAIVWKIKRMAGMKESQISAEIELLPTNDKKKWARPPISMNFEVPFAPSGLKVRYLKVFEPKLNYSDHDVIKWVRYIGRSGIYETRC

On to “HPV-16 E7-FLAG/HA (from UniProt P03129 1-98) (natural protein)”, for which the percent reduction of the binding of CD109 to the AP2 core in the presence of E7 turned out to be 50%, the percent reduction of the binding of EGFR to the AP2 core in the presence of E7 is above 70% and the percent reduction of the binding of MET to the AP2 core in the presence of E7 worked out at 50%.
